This test concerns the target CD44v6 on antigen-positive FaDu cells (human) (UniProt P16070). In words: flow cytometry (FACS) on antigen-positive FaDu cells, FITC-labeled anti-human IgG detection, on ice.
Sequence of UniProt P16070 (P16070 21-742): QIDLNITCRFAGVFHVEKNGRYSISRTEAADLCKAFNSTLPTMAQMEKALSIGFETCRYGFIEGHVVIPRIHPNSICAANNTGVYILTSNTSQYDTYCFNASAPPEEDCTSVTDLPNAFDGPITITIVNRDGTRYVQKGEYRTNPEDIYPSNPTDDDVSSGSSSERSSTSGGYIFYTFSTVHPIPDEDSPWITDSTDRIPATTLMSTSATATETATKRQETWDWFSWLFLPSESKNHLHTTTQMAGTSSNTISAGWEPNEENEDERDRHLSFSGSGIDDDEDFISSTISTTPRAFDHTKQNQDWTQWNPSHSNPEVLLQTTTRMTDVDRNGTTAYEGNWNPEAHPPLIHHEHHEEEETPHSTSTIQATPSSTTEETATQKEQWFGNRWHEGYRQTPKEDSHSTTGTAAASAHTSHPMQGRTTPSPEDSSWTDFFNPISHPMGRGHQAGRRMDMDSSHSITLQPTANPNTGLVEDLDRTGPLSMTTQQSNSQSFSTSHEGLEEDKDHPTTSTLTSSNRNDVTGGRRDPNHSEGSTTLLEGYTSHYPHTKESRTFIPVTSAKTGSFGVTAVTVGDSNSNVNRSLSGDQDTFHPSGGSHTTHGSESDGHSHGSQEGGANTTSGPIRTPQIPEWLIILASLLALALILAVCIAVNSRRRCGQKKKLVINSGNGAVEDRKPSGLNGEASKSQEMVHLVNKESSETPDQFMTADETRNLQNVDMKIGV

Molecule BIWI 1 (from UniProt P0DOX5 2-449) came in with a dissociation constant (Kd) of 1.8 nM.

B1: BIWA 4 (antibody, human IgG1, kappa, V domains shown)
VH: EVQLVESGGGLVKPGGSLRLSCAASGFTFSSYDMSWVRQAPGKGLEWVSTISSGGSYTYYLDSIKGRFTISRDNAKNSLYLQMNSLRAEDTAVYYCARQGLDYWGRGTLVTVSS
VL: EIVLTQSPATLSLSPGERATLSCSASSSINYIYWYQQKPGQAPRLLIYLTSNLASGVPARFSGSGSGTDFTLTISSLEPEDFAVYYCLQWSSNPLTFGGGTKVEIKR
With B1, the dissociation constant (Kd) is 1 nM.

The values are drawn from EP1417974A1.
